Source: patent publication US20250206836A1 (ONA THERAPEUTICS S L, published 2025)
Positions count from the first letter of the chain named. In names and notes the source's numbering stands.

Columns and labels:
[1] = target: T1, human CD36 (on HEK 293 or SCC25 cells) (human, UniProt P16671 2-472); assay: FACS, HEK 293 cells
T1 construct: Overexpressed transiently or stably on HEK 293 cells, or stably on SCC25 cells; also called huCD36

[2] = target: T2, nonhuman primate CD36 (on HEK 293 cells) (cynomolgus monkey / rhesus macaque, UniProt P16671 2-472 (human entry)); assay: FACS, HEK 293 cells transiently overexpressing CD36;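 for EC50: antibody binding to transfected cells detected by flow cytometry with a fluorescent anti-human secondary antibody, EC50 from a four-parameter sigmoidal fit of mean fluorescence intensity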
T2 construct: also called non-human primate CD36 (cynomolgus)
T2 sequence (P16671 other isoform, or with tags, fused parts or gaps limits assumed): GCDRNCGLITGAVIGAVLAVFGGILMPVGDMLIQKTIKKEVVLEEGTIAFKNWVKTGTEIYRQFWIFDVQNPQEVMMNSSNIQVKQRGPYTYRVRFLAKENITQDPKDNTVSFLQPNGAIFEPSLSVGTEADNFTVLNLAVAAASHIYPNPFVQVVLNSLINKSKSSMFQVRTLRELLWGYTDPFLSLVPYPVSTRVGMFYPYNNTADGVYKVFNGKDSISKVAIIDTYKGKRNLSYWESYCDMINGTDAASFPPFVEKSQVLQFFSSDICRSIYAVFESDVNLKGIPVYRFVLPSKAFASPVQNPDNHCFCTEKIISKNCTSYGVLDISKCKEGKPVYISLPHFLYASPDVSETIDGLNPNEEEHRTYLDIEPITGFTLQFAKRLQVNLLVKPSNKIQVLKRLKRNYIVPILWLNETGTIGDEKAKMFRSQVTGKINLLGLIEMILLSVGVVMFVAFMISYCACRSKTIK

[3] = target: T3, mouse CD36 (on HEK 293 cells) (mouse, UniProt Q08857 1-472); assay: as above
T3 construct: also called Murine CD36
T3 sequence (Q08857 whole entry): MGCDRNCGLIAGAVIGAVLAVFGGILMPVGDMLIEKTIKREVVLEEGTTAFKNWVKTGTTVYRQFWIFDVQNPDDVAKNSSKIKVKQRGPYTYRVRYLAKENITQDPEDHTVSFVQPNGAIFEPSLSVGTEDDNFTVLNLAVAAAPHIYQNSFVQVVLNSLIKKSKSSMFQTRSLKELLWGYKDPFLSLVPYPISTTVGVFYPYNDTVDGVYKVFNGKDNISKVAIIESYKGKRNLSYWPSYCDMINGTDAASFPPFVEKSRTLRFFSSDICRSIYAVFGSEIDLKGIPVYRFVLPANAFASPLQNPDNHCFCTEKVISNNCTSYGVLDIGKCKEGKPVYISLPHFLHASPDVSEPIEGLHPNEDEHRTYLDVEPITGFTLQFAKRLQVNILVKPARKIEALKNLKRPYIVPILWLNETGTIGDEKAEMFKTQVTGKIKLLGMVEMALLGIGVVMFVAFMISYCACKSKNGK

[4] = target: T1, human CD36 (on HEK 293 or SCC25 cells); assay: cell-based or functional assay
[5] = target: T1, human CD36 (on HEK 293 or SCC25 cells); assay: cell-based or functional assay; remark: listed apart in the source
[6] = target: T1, human CD36 (on HEK 293 or SCC25 cells); assay: cell-based or functional assay; remark: listed apart in the source
[7] = target: T1, human CD36 (on HEK 293 or SCC25 cells); assay: FACS, SCC25 cells stably expressing human CD36
[8] = target: T1, human CD36 (on HEK 293 or SCC25 cells); assay: FACS, SCC25 cells stably overexpressing human CD36
[9] = target: T1, human CD36 (on HEK 293 or SCC25 cells); assay: FACS, HEK 293 cells transiently overexpressing CD36;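 note: antibody binding to transfected cells detected by flow cytometry with a fluorescent anti-human secondary antibody, EC50 from a four-parameter sigmoidal fit of mean fluorescence intensity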
human CD36 (His-tagged) = target: T4, human CD36 (His-tagged) (human, UniProt P16671 30-439); assay: SPR (Biacore T200), His-captured CD36, bivalent analyte model
T4 construct: not shown: His tag
T4 sequence (P16671 30-439 limits assumed): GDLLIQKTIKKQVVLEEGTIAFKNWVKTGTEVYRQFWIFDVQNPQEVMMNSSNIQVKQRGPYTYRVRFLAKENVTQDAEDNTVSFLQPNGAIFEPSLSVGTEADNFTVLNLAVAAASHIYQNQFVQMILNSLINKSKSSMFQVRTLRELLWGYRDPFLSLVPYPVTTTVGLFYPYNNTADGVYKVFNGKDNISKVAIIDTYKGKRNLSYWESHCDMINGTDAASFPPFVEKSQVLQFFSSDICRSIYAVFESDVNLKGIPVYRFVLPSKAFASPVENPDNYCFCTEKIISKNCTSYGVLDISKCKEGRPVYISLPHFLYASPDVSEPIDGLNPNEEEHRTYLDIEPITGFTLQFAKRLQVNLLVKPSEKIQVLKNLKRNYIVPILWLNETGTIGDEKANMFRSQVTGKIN

human FcRn = human FcRn (human, UniProt P55899 24-297; P61769 21-119); assay: SPR at pH 5.8, antibody immobilized through its light chains, soluble human FcRn
Chain of human FcRn (P55899 24-297 limits assumed, chain 1 of 2): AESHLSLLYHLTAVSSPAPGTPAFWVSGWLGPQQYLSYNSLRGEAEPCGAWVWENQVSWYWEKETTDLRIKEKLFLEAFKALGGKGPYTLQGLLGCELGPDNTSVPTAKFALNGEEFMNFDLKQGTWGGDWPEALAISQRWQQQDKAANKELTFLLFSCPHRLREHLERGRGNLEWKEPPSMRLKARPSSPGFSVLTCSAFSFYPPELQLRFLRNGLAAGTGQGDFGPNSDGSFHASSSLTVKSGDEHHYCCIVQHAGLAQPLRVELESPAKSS
Chain of human FcRn (P61769 21-119 limits assumed, chain 2 of 2): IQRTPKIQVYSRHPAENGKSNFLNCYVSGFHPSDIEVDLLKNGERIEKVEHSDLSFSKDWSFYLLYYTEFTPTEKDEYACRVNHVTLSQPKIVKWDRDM

[10] = target: T5, human CD36 (Sino Biological) (human, UniProt P16671 30-439); assay: ELISA, plates coated with human CD36 (Sino Biological), antibody titrated, OD630nm
T5 construct: Bought protein coated on ELISA plates
T5 sequence (P16671 30-439 limits assumed): as the sequence (P16671 30-439 limits assumed) above

C1q human protein = target: T6, C1q human protein (human, UniProt P02745 23-245; P02746 28-253; P02747 29-245); assay: ELISA, plates coated with the antibody, C1q human protein titrated, Mean Absorbance (OD Units)
T6 construct: also called complement C1q protein
T6 sequence (P02745 23-245 limits assumed, chain 1 of 3): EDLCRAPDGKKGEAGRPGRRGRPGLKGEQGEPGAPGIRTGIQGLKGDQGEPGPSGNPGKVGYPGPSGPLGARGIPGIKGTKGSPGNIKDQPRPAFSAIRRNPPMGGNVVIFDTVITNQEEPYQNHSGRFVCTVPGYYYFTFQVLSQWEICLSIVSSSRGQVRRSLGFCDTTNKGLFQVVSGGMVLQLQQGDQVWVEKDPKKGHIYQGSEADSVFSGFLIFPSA
T6 sequence (P02746 28-253 limits assumed, chain 2 of 3): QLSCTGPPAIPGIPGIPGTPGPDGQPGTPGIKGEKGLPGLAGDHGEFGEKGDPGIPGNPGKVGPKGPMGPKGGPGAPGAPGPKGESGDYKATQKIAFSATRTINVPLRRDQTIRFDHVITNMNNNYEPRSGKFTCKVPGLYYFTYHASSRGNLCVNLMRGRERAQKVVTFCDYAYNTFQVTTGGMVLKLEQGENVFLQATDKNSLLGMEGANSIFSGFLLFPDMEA
T6 sequence (P02747 29-245 limits assumed, chain 3 of 3): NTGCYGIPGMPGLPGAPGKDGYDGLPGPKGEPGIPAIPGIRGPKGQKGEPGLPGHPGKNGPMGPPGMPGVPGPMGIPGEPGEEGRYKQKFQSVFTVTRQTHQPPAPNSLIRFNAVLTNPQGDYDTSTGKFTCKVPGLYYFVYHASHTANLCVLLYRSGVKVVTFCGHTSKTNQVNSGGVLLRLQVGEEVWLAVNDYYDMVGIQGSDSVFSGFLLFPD

Human FcγRIIb = target: T7, Human FcγRIIb (human, UniProt P31994); assay: SPR, antibody immobilized through its light chains, soluble receptor injected; Mean Relative Response (RU)
T7 construct: soluble receptor protein; bar 7 of each group
T7 sequence (receptor, looked up): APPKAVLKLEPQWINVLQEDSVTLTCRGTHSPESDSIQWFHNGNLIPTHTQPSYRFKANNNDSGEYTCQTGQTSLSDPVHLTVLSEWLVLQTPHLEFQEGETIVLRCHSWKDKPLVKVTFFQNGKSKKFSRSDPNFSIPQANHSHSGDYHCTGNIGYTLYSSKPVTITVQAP

Cyno FcγRIIa = target: T8, Cyno FcγRIIa (Macaca fascicularis, UniProt A0A140HDN0); assay: as above
T8 construct: soluble receptor protein; bar 8 of each group
T8 sequence (receptor): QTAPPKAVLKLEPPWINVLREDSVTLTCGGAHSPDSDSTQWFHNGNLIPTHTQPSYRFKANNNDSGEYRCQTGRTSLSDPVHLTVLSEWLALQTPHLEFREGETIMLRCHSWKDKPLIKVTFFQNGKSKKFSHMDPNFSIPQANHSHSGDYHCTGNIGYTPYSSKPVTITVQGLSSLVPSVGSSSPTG

Human FcγRI = target: T9, Human FcγRI (human, UniProt P12314); assay: as above
T9 construct: soluble receptor protein; bar 10 of each group
T9 sequence (P12314 16-288 limits assumed): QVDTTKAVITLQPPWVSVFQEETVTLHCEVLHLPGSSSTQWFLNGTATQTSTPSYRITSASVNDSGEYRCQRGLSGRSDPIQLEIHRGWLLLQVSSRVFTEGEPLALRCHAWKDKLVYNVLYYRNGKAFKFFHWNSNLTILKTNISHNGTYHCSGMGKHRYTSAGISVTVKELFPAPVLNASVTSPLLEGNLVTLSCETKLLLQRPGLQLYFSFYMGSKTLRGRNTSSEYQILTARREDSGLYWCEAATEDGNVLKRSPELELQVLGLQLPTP

Human FcγRIIIa (158F) = target: T10, Human FcγRIIIa (158F) (human, UniProt P08637); assay: as above
T10 construct: soluble receptor protein; bar 1 of each group
T10 sequence (P08637 17-208 limits assumed): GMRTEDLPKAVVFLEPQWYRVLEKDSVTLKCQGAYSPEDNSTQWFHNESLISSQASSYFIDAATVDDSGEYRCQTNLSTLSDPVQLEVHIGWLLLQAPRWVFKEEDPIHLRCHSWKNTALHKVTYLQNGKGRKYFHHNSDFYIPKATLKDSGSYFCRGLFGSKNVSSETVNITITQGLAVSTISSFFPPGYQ

Human FcγRIIIa (158V) = target: T11, Human FcγRIIIa (158V) (human, UniProt P08637); assay: as above
T11 construct: soluble receptor protein; bar 2 of each group
T11 sequence (P08637 17-208 F176V limits assumed): as the sequence (P08637 17-208 limits assumed) above, with F160V counted along it

Human FcγRIIIb = target: T12, Human FcγRIIIb (human, UniProt O75015); assay: as above
T12 construct: soluble receptor protein; bar 3 of each group
T12 sequence (O75015 17-200 limits assumed): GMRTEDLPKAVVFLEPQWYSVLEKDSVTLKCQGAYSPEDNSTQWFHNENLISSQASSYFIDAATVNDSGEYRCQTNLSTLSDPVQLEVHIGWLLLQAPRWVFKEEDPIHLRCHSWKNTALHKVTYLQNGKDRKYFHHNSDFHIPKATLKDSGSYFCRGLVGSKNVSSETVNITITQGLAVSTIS

Cyno FcγRIII = target: T13, Cyno FcγRIII (cynomolgus monkey, UniProt Q8SPW2); assay: as above
T13 construct: soluble receptor protein; bar 4 of each group
T13 sequence (Q8SPW2 17-208 limits assumed): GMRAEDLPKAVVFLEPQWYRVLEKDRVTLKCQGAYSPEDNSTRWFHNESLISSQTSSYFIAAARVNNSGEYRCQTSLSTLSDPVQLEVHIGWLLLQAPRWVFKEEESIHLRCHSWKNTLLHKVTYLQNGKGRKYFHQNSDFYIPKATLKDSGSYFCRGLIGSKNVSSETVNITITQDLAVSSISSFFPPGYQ

Human FcγRIIa (131H) = target: T14, Human FcγRIIa (131H) (human, UniProt P12318); assay: as above
T14 construct: soluble receptor protein; bar 5 of each group
T14 sequence (receptor, looked up): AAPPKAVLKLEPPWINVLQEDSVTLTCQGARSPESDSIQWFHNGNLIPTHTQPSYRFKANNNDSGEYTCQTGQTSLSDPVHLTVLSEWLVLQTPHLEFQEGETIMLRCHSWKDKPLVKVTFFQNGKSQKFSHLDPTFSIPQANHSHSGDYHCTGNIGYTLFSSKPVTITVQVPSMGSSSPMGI

Human FcγRIIa (131R) = target: T15, Human FcγRIIa (131R) (human, UniProt P12318); assay: as above
T15 construct: soluble receptor protein; bar 6 of each group
T15 sequence (receptor, looked up): T14 sequence (receptor, looked up) with H132R

Cyno FcγRIIb = target: T16, Cyno FcγRIIb (Macaca fascicularis, UniProt A0A140HDP4); assay: as above
T16 construct: soluble receptor protein; bar 9 of each group
T16 sequence (receptor): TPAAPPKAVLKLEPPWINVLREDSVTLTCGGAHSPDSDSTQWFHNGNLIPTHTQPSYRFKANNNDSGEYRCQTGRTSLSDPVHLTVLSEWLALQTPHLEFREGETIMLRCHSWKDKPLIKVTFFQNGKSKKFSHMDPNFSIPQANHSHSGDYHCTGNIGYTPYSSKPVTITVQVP

[11] = target: T2, nonhuman primate CD36 (on HEK 293 cells); assay: FACS, HEK 293 cells transiently overexpressing CD36; remark: listed apart in the source;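 for EC50: antibody binding to transfected cells detected by flow cytometry with a fluorescent anti-human secondary antibody, EC50 from a four-parameter sigmoidal fit of mean fluorescence intensity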
[12] = target: T17, purified biotin-tagged human CD36 (human, UniProt P16671 30-439, limits assumed, biotin tag, site not stated); assay: AlphaScreen competition; competitor 1G04 on acceptor beads;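 note: streptavidin donor beads excited at 680 nm release singlet oxygen, and the light signal needs a nearby acceptor bead, with 30 min donor-bead incubation at 25 °C in the dark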
T17 sequence (P16671 30-439 limits assumed): as the sequence (P16671 30-439 limits assumed) above

[13] = target: T17, purified biotin-tagged human CD36; assay: AlphaScreen competition; competitor FA6-152 on acceptor beads
Throughout, for Percent Fatty Acid Uptake Inhibition: test concentration or dose not given here.

T1 sequence (P16671 2-472 limits assumed): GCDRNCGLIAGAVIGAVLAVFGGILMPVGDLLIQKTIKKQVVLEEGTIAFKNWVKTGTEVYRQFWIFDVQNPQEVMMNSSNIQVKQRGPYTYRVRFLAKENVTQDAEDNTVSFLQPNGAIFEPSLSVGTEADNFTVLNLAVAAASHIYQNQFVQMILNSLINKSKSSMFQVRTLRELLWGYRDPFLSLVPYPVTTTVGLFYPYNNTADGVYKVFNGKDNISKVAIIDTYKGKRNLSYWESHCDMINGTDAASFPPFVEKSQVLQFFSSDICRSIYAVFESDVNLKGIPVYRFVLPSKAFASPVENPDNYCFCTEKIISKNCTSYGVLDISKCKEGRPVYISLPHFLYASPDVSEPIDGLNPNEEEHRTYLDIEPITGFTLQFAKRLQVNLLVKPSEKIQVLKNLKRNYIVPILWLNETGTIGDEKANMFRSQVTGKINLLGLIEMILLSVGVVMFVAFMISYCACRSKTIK

B1: 20G04 (antibody, human IgG1, V domains shown)
VH: QIQLVQSGPELVKPGASVKISCETSGHTFTEYTMHWVKQSHGKSLEWIGGIYPNNGATKYNQKFKGKATLTVDKSSSTAYMELRSLTSEDSAVYYCARDRYDVWFAYWGQGTLVTVSA
VL: ETTVTQSPASLSVATGEKVTIRCITSTDIDDDMNWYQQKPGEPPKLLISEGNTLRPGVPSRFSSGGYGTDFVFTVENMLSEDVADYYCLQSDNLPLTFGAGTKLELK
notes: Chimeric: mouse variable regions on human IgG1 LALA (L234A/L235A)
Question: Which results are given for B1?
Answer: binding result [1]: binds; EC50 [2]: 5.03 nM; EC50 [3]: 18.2 nM

B2: 1G04 (antibody, human IgG1, kappa, L234A L235A)
heavy: not shown
light: SIVMTQTPKFLLVSAGDRITITCKASQSVSDDVAWYQQKPGQSPKLLIYYASNRYTGVPDRFTGSGYGTDFTFTISTVQAEDLAVYFCQQDYSSPLTFGAGTKLEIKRTVAAPSVFIFPPSDEQLKSGTASVVCLLNNFYPREAKVQWKVDNALQSGNSQESVTEQDSKDSTYSLSSTLTLSKADYEKHKVYACEVTHQGLSSPVTKSFNRGEC
notes: Chimeric human IgG1 with L234A/L235A (LALA); variable region of ONA-0-v1; also called 01G04; 001G04; copies: 2 + 2
Question: For B2, which “Percent Fatty Acid Uptake Inhibition” value [4] is on record?
Answer: 30.5%

Question: And the “IC50 of fatty acid uptake inhibition (BODIPY FL C16, HEK hCD36 cells)” value [5]?
Answer: 1 nM

Question: What about the “IC50 of oxLDL uptake inhibition (DiI-oxLDL, SCC25 cells)” value [6] of the same binder?
Answer: 0.36 nM

Question: And the EC50 [7]?
Answer: 0.42 nM

Question: And the EC50 [8]?
Answer: 0.34 nM

Question: And the EC50 [9]?
Answer: 2.07 nM

Question: What about the EC50 [2] of the same binder?
Answer: 1.23 nM

Question: And the EC50 [3]?
Answer: 1.99 nM

Question: And the Kd (human CD36 (His-tagged))?
Answer: 3.2 nM

Question: And the koff (human CD36 (His-tagged))?
Answer: 0.0094 s⁻¹

Question: What about the kon (human CD36 (His-tagged)) of the same binder?
Answer: 2.9e+06 M⁻¹ s⁻¹

Question: What about the Kd (human FcRn) of the same binder?
Answer: 676 nM

Question: And the “EC50 (read off the curve)” value [10]?
Answer: ~0.1 nM

Question: Does B2 bind (C1q human protein)?
Answer: no binding (tested: 250 µg/mL C1q (highest point))

Question: Does B2 bind (Human FcγRIIb)?
Answer: binds

Question: Does B2 bind (Cyno FcγRIIa)?
Answer: no binding

Question: Does B2 bind (Human FcγRI)?
Answer: binds

Question: Does B2 bind (Human FcγRIIIa (158F))?
Answer: binds

Question: Does B2 bind (Human FcγRIIIa (158V))?
Answer: binds

Question: Does B2 bind (Human FcγRIIIb)?
Answer: binds

Question: Does B2 bind (Cyno FcγRIII)?
Answer: binds

Question: Does B2 bind (Human FcγRIIa (131H))?
Answer: binds

Question: Does B2 bind (Human FcγRIIa (131R))?
Answer: binds

B3: 1G06 (antibody, human IgG1, kappa)
heavy: QVQLKQSGADLVRPGASVKLSCKASGYTFTDYYINWVKQRPGQGLEWIARIYPGSGNTYYNEKFKGKATLTAEKSSSTAYMQLSSLTSEDSAVYFCARGIGGGFGMDYWGQGTSVTVSSASTKGPSVFPLAPSSKSTSGGTAALGCLVKDYFPEPVTVSWNSGALTSGVHTFPAVLQSSGLYSLSSVVTVPSSSLGTQTYICNVNHKPSNTKVDKKVEPKSCDKTHTCPPCPAPESTRGPSVFLFPPKPKDTLMISRTPEVTCVVVDVSHEDPEVKFNWYVDGVEVHNAKTKPREEQYNSTYRVVSVLTVLHQDWLNGKEYKCKVSNKALPAPIEKTISKAKGQPREPQVYTLPPSRDELTKNQVSLTCLVKGFYPSDIAVEWESNGQPENNYKTTPPVLDSDGSFFLYSKLTVDKSRWQQGNVFSCSVMHEALHNHYTQKSLSLSPGK
light: B2 light
notes: Variable regions of 1G04 on human IgG1 with L234S, L235T, G236R (STR); also called STR; copies: 2 + 2
Question: Which EC50 [7] does the source give for B3 here?
Answer: 0.38 nM

Question: And the Kd (human FcRn)?
Answer: 629 nM

Question: And the “EC50 (read off the curve)” value [10]?
Answer: ~0.1 nM

Question: Does B3 bind (C1q human protein)?
Answer: no binding (tested: 250 µg/mL C1q (highest point))

Question: Does B3 bind (Human FcγRIIb)?
Answer: no binding

Question: Does B3 bind (Cyno FcγRIIa)?
Answer: no binding

Question: Does B3 bind (Cyno FcγRIIb)?
Answer: no binding

Question: Does B3 bind (Human FcγRI)?
Answer: no binding

Question: Does B3 bind (Human FcγRIIIa (158F))?
Answer: binds

Question: Does B3 bind (Human FcγRIIIa (158V))?
Answer: binds

Question: Does B3 bind (Human FcγRIIIb)?
Answer: binds

Question: Does B3 bind (Cyno FcγRIII)?
Answer: no binding

Question: Does B3 bind (Human FcγRIIa (131H))?
Answer: no binding

Question: Does B3 bind (Human FcγRIIa (131R))?
Answer: no binding

B4: 26G04 (antibody, human IgG1, V domains shown)
VH: QVQMKESGAELMKPGASVKISCKATGYIFSNYWIEWLKERPGHGLEWIGDFLPGSSSANYNEKFKGKATFTADTSSNTAYMQLSSLTSEDSAVYYCVPFTVEVTDAMDYWGQGTSVTVSS
VL: DIVLTQSHKFMSTSVGDRVSITCKASQDVSTAVAWYQQKPGQSPKLLIYSASYRYTGVPDRFTGSGSGTDFTFTISSVQAEDLAVYYCQQHYSTPRTFGGGTKLEIK
notes: as for B1
Question: Does B4 bind [11]?
Answer: no binding (tested: 500 nM top concentration)

Question: And the EC50 [9]?
Answer: 0.72 nM

Question: And the EC50 [3]?
Answer: 158 nM

Question: What about the EC50 [12] of the same binder?
Answer: 0.46 nM

Question: And the EC50 [13]?
Answer: 2.66 nM

B5: 31G04 (antibody, human IgG1, V domains shown)
VH: QVQLQQSGSELRSPGSSVKLSCKDFDSEVFPIAYMSWVRQKPGHGFEWIGDILPSIGSTIYGEKFEDKATLDADTVSNTAYLELNSLTSEDSAIYYCARDYYGSSYGYFDVWGAGTTVTVPS
VL: DIVLTQSPASLAVSLGQRATISCRASESVDSYGNSFMHWYQQKPGQPPKLLIYRASNLESGIPARFSGSGSRTDFTLTINPVEADDVATYYCQQSNEDPYTFGGGTKLEIK
notes: as for B1
Question: Does B5 bind [11]?
Answer: no binding (tested: 500 nM top concentration)

Question: And the EC50 [12]?
Answer: 0.27 nM

Question: And the EC50 [13]?
Answer: 2.5 nM
